Experiment: soluble on expression in E. coli; label from the status in PepcDB or PDB records

Sequence | soluble on expression in E. coli
MGSDKIHHHHHHMALLDIRNLCIEIETPKGRVKIIDNVNLTLNEGEICGLVGESGSGKSLIAKVICNAIKDSWIITADRFRFDDVELLKLNPKKRRKLVGKEISMIYQEPLASLDPSRKIGQQLIQSIPSWTFKGRWWQWFGWKKRRAIELLHRVGVKDHKDIMQSYPHEVTEGEGQKIMIALAIANQPRLLIADEPTNSLESMTKVQIFRLLASMNQNQGTSILLVSNDINSISAWCDSFSVLYCGQNAESGSKENILENPHHPYTRALLHSIPDFKQPLVHKSRLSTLKGAVPLLEGMPIGCRLGPRCPFAQKECIRKPTAQRIKQHEFFCHFPINLKESQRREKEMETGPLVVNTTK | not soluble
MRGSHHHHHHTDPALRAARLFTLSESKYYLMALDAGTGSIRAVIFDLEGNQIAVGQAEWRHLAVPDVPGSMEFDLNKNWQLACECMRQALHNAGIAPEYIAAVSACSMREGIVLYNNEGAPIWACANVDARAAREVSELKELHNNTFENEVYRATGQTLALSAIPRLLWLAHHRSDIYRQASTITMISDWLAYMLSGELAVDPSNAGTTGLLDLTTRDWKPALLDMAGLRADILSPVKETGTLLGVVSSQAAELCGLKAGTPVVVGGGDVQLGCLGLGVVRPAQTAVLGGTFWQQVVNLAAPVTDPEMNVRVNPHVIPGMVQAESISFFTGLTMRWFRDAFCAEEKLIAERLGIDTYTLLEEMASRVPPGSWGVMPIFSDRMRFKTWYHAAPSFINLSIDPDKCNKATLFRALEENAAIVSACNLQQIADFSNIHPSSLVFAGGGSKGKLWSQILADVSGLPVNIPVVKEATALGCAIAAGVGAGIFSSMAETGERLVRWERTHTPDPEKHELYQDSRDKWQAVYQDQLGLVDHGLTTSLWKAPGLGLCGR | soluble
MSLDAITVDLNYDKNNVAVITPVWSQEWSVANVLGGWVCRSNRNENEGACEETHLVWWYAFGAYSKIRLRFREQISHAEITLILLGSVRDACYTGVINMNAAACQWGRSLKLRIPSEELAKIPTSGTWKATLVLDYLQWGGDDPLGTSTTDITLNVTDHFAENAAIYFPQFGTATPRVDLNLHRMNASQMSGRANLDMCLYDGGVKARSLQMKIEGSNKSGTGFQVIKSDSADTIDYAVSMNYGGRSIPVTRGVEFSLDNVDKAATRPVVLPGQRQAVRCVPVPLTLTTQPFNIREKRSGEYQGTLTVTMLMGTQTPEGHHHHHH | not soluble
MSGHKCSYPWDLQDRYAQDKSVVNKMQQKYWETKQAFIKATGKKEDEHVVASDADLDAKLELFHSIQRTCLDLSKAIVLYQKRICFLSQEENELGKFLRSQGFQDKTRAGKMMQATGKALCFSSQQRLALRNPLCRFHQEVETFRHRAISDTWLTVNRMEQCRTEYRGALLWMKDVSQELDPDLYKQMEKFRKVQTQVRLAKKNFDKLKMDVCQKVDLLGASRCNLLSHMLATYQTTLLHFWEKTSHTMAAIHESFKGYQPYEFTTLKVWKLEGPLENLEKSKVLFISQAKSIAESIIIPGLRMLKRELCPQQSLFLSFFLFFYCIRIQYNENLLQSKSAN | soluble
SLPKQIDTILINIGQLLTMESSGPRAGKSMQDLHVIEDAVVGIHEQKIVFAGQKGAEAGYEADEIIDCSGRLVTPGLVDPHTHLVFGGSREKEMNLKLQGISYLDILAQGGGILSTVKDTRAASEEELLQKAHFHLQRMLSYGTTTAEVKSGYGLEKETELKQLRVAKKLHESQPVDLVSTFMGAHAIPPEYQNDPDDFLDQMLSLLPEIKEQELASFADIFTETGVFTVSQSRRYLQKAAEAGFGLKIHADEIDPLGGAELAGKLKAVSADHLVGTSDEGIKKLAEAGTIAVLLPGTTFYLGKSTYARARAMIDEGVCVSLATDFNPGSSPTENIQLIMSIAALHLKMTAEEIWHAVTVNAAYAIGKGEEAGQLKAGRSADLVIWQAPNYMYIPYHYGVNHVHQVMKNGTIVVNREGAILG | soluble
MAHHHHHHMVQLTINNARGVTLCRVSLPANATVQQLLLQLTVAKPELRQAQAIRNDVRHVTHRLTPASTTTTTTTSVVSSNAQTLLQAGLVGQGATAETLVVLMAADAPAAASSAAAAAPSPTKAVAAQILDLFGCASASPSAGVRSQASVVPSTMDERQLELQRRIYAQIQQQQIDENLANALEYTPEAFAKVTMLYVPCTINQVLVKAFVDSGAQNSIMNKRTAERCGLMRLVDVRMRGVAVGVGRQEICGRIHMTPVNLAGMYIPFAFYVIEDQAMDLIIGLDQLKRHQMMIDLKHNCLTIDNINVPFLPENDLPALAALGDDENAMHAPRHQDPATTATTASNPAAPVLSEGERQARIEGFMTVSGITDPTQAAELLEAADWNPNVAAALLFDT | soluble

From the DeepSol protein solubility set
